Experimental data as given in article PMC2133107 (The Journal of Cell Biology, 1999).

B1: HIV Rev protein (natural protein)
chain: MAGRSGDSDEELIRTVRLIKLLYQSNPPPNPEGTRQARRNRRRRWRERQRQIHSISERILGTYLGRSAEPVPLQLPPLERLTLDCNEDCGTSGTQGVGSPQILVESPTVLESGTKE

Key:
[1] = target: Ran wild type, Ran-[γ-32P]GTP (UniProt P62826)
[2] = target: Human CRM1 (recombinant, untagged) (human, UniProt O14980 1-1071)
Sequence of Human CRM1 (recombinant, untagged) (human, UniProt O14980 1-1071) (O14980 whole entry): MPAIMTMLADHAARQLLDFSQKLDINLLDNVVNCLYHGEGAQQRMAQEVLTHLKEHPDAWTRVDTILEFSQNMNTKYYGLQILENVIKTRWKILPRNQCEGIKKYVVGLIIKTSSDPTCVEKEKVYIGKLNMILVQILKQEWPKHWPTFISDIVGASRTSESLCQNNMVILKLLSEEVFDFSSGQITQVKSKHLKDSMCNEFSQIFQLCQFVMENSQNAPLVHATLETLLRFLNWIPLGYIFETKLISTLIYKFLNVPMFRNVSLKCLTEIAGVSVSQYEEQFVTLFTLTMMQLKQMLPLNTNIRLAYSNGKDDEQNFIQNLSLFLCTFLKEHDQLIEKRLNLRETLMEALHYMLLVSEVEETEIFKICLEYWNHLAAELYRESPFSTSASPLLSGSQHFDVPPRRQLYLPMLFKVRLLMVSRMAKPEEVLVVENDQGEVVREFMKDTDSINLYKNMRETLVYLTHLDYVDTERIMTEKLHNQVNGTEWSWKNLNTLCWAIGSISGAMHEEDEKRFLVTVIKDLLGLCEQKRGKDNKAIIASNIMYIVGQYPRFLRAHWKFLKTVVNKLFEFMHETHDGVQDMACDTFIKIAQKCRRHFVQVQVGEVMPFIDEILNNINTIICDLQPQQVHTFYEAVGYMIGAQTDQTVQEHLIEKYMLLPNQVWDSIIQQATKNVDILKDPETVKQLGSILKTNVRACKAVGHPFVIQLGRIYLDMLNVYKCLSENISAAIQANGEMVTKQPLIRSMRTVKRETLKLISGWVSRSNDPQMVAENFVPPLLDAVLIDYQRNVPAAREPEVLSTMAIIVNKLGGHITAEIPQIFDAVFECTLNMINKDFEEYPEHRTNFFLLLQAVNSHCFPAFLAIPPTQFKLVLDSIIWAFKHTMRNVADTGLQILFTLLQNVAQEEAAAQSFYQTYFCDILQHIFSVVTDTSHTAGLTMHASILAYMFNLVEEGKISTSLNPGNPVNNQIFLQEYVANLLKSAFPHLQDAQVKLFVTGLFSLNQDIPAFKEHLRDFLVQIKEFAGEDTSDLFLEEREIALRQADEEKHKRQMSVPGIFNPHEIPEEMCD

| Molecule | Kd [1] | Kd [2] |
| --- | --- | --- |
| Human CRM1 (recombinant, untagged) (from UniProt O14980 1-1071) (natural protein; other documents disagree on this pair) | > 1 µM | – |
| CLPPLERLTL [Rev-NES peptide 1] | – | ~50 µM |
| CPVPLQLPPLERLTLD [Rev-NES peptide 2] | – | ~7 µM |
| B1 | – | ~0.5 µM |
